Molecular target: mCherry-CARACB(G15V) (barley (Hordeum vulgare))
Assay: FRET or BRET; FLIM-FRET in barley epidermal cells transiently co-expressing meGFP-RIC157 (donor) and mCherry-RACB forms (acceptor) after particle bombardment; meGFP lifetime measured at the equatorial plane; at least 10 cells per interaction in two replicates

meGFP-RIC157 (natural protein) showed a meGFP fluorescence lifetime of 2.2 ns.

Source: paper PMC10090020
